Test results as given in the supplement of paper PMC7877785.
± gives the uncertainty stated by the source.

Test: self-splicing fitness, log relative to wild type (ln ratio); higher = more splicing; Tetrahymena group I intron in knt gene, E. coli kanamycin selection, DiMSum; sequences stand for … in CUCUCU…GGAGGGAAAAGUUAUCAGGCAUGCACCUGGUAGCUAGUCUUUAAACCAAUAGAUUGCAUCGGUUUAAAAGGCAAGACCGUCAAAUUGCGGGAAAGGGGUCAACAGCCGUUCAGUACCAAGUCUCAGGGGAAACUUUGAGAUGGCCUUGCAAAGGGUAUGGUAAUAAGCUGACGGACAUGGUCCUAACCACGCAGCCAAGUCCUAAGUCAACAGAUCUUCUGUUGAUAUGGAUGCAGUUCACAGACUAAAUGUCGGUCGGGGAAGAUGUAUUCUUCUCAUAAGAUAUAGUCGGACCUCUCCUUAAUGGGAGCUAGCGGAUGAAGUGAUGCAACACUGGAGCCGCUGGGAACUAAUUUGUAUGCGAAAGUAUAUUGAUUAGUUUUGGAGUACUCGUGGUCG
Outline: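 The eight P1ex-region nucleotides of an intron in the knt kanamycin-resistance gene on pET-22b(+) were all randomised and the library put into E. coli BL21(DE3). Six replicate transformations were grown overnight at 37°C or 30°C on LB agar with or without 25 μg/mL kanamycin, together with 100 μg/mL carbenicillin, 50 μM IPTG and 0.2% rhamnose. Colonies were pooled and amplicon-sequenced on an Illumina HiSeq 2500. Fitness from DiMSum is the error-weighted combination of wild-type-normalised replicate fold changes, kanamycin over none.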

Sequence	self-splicing fitness (ln) (30 °C)	self-splicing fitness (ln) (37 °C)
UCGGAGCAAUAUUACGUGAC	-1.95 ± 0.34	-2.14 ± 0.46
ACUAAGCAAUAUUACGAAGA	-1.65 ± 0.17	-1.29 ± 0.18
AACUAGCAAUAUUACGCAUA	-1.64 ± 0.15	-1.1 ± 0.14
CAGGAGCAAUAUUACGUGAU	-4.53 ± 0.46	-1.95 ± 0.23
AGUGAGCAAUAUUACGCGGU	-3.93 ± 0.25	-3.01 ± 0.23
UCGCAGCAAUAUUACGGCAA	-0.188 ± 0.079	0.0609 ± 0.11
UUUAAGCAAUAUUACGGGGA	-1.27 ± 0.1	-0.724 ± 0.11
GUCGAGCAAUAUUACGCUGA	–	-2.01 ± 0.43
UCGCAGCAAUAUUACGUGGU	-3.38 ± 0.13	-3.24 ± 0.19
CCCCAGCAAUAUUACGUUGU	-3.93 ± 0.12	-2.77 ± 0.13
ACCGAGCAAUAUUACGUUGG	-4.16 ± 0.27	-2.41 ± 0.22
AAACAGCAAUAUUACGCUGG	-2.53 ± 0.12	-2.62 ± 0.2
CCCUAGCAAUAUUACGACGG	-2.7 ± 0.14	-2.87 ± 0.34
UAGAAGCAAUAUUACGACAC	-1.77 ± 0.43	-2.07 ± 0.25
GCGCAGCAAUAUUACGGAGC	-2.35 ± 0.26	-2.38 ± 0.49
ACUCAGCAAUAUUACGUGCC	-0.982 ± 0.13	-0.189 ± 0.12
AAACAGCAAUAUUACGUUUG	-2.49 ± 0.1	-1.51 ± 0.099
UGCAAGCAAUAUUACGGGCU	-1.12 ± 0.11	-1.48 ± 0.14
UAAGAGCAAUAUUACGGACU	–	-2.75 ± 0.41
AUAGAGCAAUAUUACGGAGA	-1.97 ± 0.26	-2.31 ± 0.39
GGUAAGCAAUAUUACGGCUG	-0.805 ± 0.14	0.356 ± 0.15
GUACAGCAAUAUUACGAGCA	-1.59 ± 0.13	-1.12 ± 0.13
GGGGAGCAAUAUUACGGUCU	-3.73 ± 0.4	-0.856 ± 0.31
CGGAAGCAAUAUUACGCAUA	–	-1.12 ± 0.27
UUGAAGCAAUAUUACGCUAA	-0.361 ± 0.085	-0.109 ± 0.097
AUAGAGCAAUAUUACGGGAC	-2.71 ± 0.18	-2.36 ± 0.27

Sequence	self-splicing fitness (ln) (30 °C)	self-splicing fitness (ln) (37 °C)
UCAAAGCAAUAUUACGGCUC	–	-0.154 ± 0.2
UGCUAGCAAUAUUACGCAGA	-4.03 ± 0.31	-2.26 ± 0.17
AAGUAGCAAUAUUACGAUAC	-3.92 ± 0.28	-1.71 ± 0.25
AAGAAGCAAUAUUACGUAUC	-2.31 ± 0.16	-0.892 ± 0.18
GCAUAGCAAUAUUACGCGUA	-1.43 ± 0.13	-0.403 ± 0.12
UAUAAGCAAUAUUACGUUGC	-3.02 ± 0.3	–
GCCAAGCAAUAUUACGAGUU	-1.7 ± 0.066	-0.45 ± 0.08
UAUUAGCAAUAUUACGCCGG	-0.99 ± 0.22	-0.907 ± 0.26
AUAUAGCAAUAUUACGGGCA	-1.67 ± 0.17	-1.29 ± 0.19
AAACAGCAAUAUUACGGGCU	-3.15 ± 0.12	-1.95 ± 0.13
UGUAAGCAAUAUUACGGGUA	-1.61 ± 0.22	-0.187 ± 0.16
UGCAAGCAAUAUUACGACAA	-0.541 ± 0.088	0.237 ± 0.1
ACAUAGCAAUAUUACGUAGG	-3.02 ± 0.13	-1.84 ± 0.12
ACGAAGCAAUAUUACGCGCG	-0.867 ± 0.12	-0.486 ± 0.18
UGCAAGCAAUAUUACGGAGU	-2.83 ± 0.14	-3.18 ± 0.16
AGCAAGCAAUAUUACGCCAU	-3.14 ± 0.18	-1.63 ± 0.13
GGUCAGCAAUAUUACGUGCG	0.397 ± 0.12	-0.078 ± 0.13
CAAAAGCAAUAUUACGUUAU	-3.96 ± 0.13	-2.5 ± 0.12
GUCGAGCAAUAUUACGCGUU	-1.64 ± 0.11	-0.556 ± 0.14
GGAAAGCAAUAUUACGCGAC	-2.95 ± 0.24	-1.73 ± 0.25
UUACAGCAAUAUUACGAGAC	-3.02 ± 0.27	-2.18 ± 0.34
UUGGAGCAAUAUUACGGUGU	-3.09 ± 0.32	-1.64 ± 0.32
CCCCAGCAAUAUUACGUAAU	-3.53 ± 0.11	-1.67 ± 0.11
UGCGAGCAAUAUUACGGCAG	-1.33 ± 0.15	-1.59 ± 0.21
AUUCAGCAAUAUUACGAGUG	-1.37 ± 0.062	-1.02 ± 0.082
AAAGAGCAAUAUUACGGAAC	–	-2.8 ± 0.44

Sequence	self-splicing fitness (ln) (30 °C)	self-splicing fitness (ln) (37 °C)
AGUAAGCAAUAUUACGUCUC	-3.31 ± 0.25	-2.96 ± 0.47
GGCUAGCAAUAUUACGUCGG	-3.95 ± 0.29	-2.61 ± 0.26
AUGUAGCAAUAUUACGACUU	-0.0543 ± 0.089	-0.312 ± 0.088
GCUUAGCAAUAUUACGUCCU	-1.01 ± 0.12	-0.274 ± 0.15
UCCGAGCAAUAUUACGCAUU	-2.2 ± 0.19	-3.08 ± 0.37
AAUAAGCAAUAUUACGGAAA	-1.5 ± 0.33	-2.03 ± 0.39
UAUCAGCAAUAUUACGUUAA	-0.97 ± 0.093	-0.0683 ± 0.11
GUGGAGCAAUAUUACGAGAG	-3.58 ± 0.22	-2.7 ± 0.38
UUGAAGCAAUAUUACGUGAG	-0.592 ± 0.067	-0.805 ± 0.093
UAACAGCAAUAUUACGGGGU	-4.16 ± 0.14	-2.2 ± 0.12
UUGGAGCAAUAUUACGCAAG	-1.51 ± 0.22	-2.65 ± 0.44
GUCGAGCAAUAUUACGUGUA	-3.26 ± 0.2	-2.12 ± 0.19
GUUCAGCAAUAUUACGUUGC	-3.13 ± 0.12	-1.7 ± 0.11
UCCGAGCAAUAUUACGUUGC	-3.03 ± 0.21	-2.16 ± 0.24
UCUGAGCAAUAUUACGAAGU	-2.62 ± 0.16	-1.56 ± 0.19
GUCCAGCAAUAUUACGACGG	-3.49 ± 0.2	-2.66 ± 0.23
GGGGAGCAAUAUUACGACGG	-3.76 ± 0.46	–
GCACAGCAAUAUUACGUUUA	-1.19 ± 0.066	-0.603 ± 0.066
CGUUAGCAAUAUUACGUGCC	-2.8 ± 0.31	-1.59 ± 0.29
UCUCAGCAAUAUUACGACCG	–	-1.07 ± 0.47
GUACAGCAAUAUUACGCCGA	–	-1.96 ± 0.41
AAACAGCAAUAUUACGGUAA	-2.28 ± 0.1	-0.892 ± 0.083
CAUGAGCAAUAUUACGGAAA	-3.26 ± 0.29	-2.17 ± 0.24
CCAUAGCAAUAUUACGUCUU	-3.12 ± 0.15	-2.56 ± 0.17
UCCCAGCAAUAUUACGUUUG	-3.67 ± 0.11	-2.91 ± 0.15
GGGAAGCAAUAUUACGCUAG	-1.73 ± 0.18	-1.01 ± 0.2
